Here are results for eight sequences from the supplement of paper PMC10065799, “High-throughput profiling of sequence recognition by tyrosine kinases and SH2 domains using bacterial peptide display” (eLife, 2023).

Data set [1] concerns the target Fes (UniProt P07332). Put plainly: phosphorylation enrichment, bacterial display (enrichment ratio); higher = better substrate or ligand; peptides without Tyr show the background.
Data set [2] addresses EPHB2 (UniProt P29323). The description is as above.
Data set [3] relates to AncSZ. The data set is described as above.
The subject of data set [4] is Fer (mouse). The data set is described as above.
Data set [5] deals with MERTK (UniProt Q12866). The description is as above.
MERTK, sequence (Q12866 whole entry, looked up): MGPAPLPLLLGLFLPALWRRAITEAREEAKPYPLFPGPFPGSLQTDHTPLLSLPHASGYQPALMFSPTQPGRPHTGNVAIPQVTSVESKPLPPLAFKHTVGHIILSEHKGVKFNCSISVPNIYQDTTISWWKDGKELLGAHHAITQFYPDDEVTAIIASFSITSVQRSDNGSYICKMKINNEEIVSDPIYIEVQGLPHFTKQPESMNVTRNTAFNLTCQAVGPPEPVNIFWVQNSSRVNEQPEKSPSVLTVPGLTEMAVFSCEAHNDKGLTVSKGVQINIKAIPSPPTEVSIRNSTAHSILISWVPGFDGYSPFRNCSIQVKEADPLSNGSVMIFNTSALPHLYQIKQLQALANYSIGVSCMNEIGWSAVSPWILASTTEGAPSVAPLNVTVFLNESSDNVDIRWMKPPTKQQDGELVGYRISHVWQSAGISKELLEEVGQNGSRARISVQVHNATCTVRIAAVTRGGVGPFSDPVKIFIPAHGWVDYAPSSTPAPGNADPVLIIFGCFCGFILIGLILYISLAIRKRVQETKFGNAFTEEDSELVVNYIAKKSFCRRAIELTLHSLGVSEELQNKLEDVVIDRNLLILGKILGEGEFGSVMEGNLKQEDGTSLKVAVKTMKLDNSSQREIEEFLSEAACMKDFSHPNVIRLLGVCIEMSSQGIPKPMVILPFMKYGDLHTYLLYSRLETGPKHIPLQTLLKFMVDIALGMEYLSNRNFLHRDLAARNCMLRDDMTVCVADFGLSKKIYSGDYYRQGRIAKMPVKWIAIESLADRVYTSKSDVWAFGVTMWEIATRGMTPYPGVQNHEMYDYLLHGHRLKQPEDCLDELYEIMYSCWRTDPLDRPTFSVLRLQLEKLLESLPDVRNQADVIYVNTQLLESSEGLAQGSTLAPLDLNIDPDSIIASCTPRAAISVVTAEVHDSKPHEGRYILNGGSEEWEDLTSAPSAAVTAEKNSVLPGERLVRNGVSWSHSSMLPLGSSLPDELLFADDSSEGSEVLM
In data set [6] the test system is c-Src. The data set is described as above.
The target of data set [7] is FGFR1 (UniProt P11362). Described as above.
The target in data set [8] is Fyn (UniProt P06241). Described as above.
For data set [9], the system named is c-Abl (mouse). Described as above.
Data set [10] deals with FGFR3 (UniProt P22607). The description is as above.
FGFR3, sequence (P22607 whole entry, looked up): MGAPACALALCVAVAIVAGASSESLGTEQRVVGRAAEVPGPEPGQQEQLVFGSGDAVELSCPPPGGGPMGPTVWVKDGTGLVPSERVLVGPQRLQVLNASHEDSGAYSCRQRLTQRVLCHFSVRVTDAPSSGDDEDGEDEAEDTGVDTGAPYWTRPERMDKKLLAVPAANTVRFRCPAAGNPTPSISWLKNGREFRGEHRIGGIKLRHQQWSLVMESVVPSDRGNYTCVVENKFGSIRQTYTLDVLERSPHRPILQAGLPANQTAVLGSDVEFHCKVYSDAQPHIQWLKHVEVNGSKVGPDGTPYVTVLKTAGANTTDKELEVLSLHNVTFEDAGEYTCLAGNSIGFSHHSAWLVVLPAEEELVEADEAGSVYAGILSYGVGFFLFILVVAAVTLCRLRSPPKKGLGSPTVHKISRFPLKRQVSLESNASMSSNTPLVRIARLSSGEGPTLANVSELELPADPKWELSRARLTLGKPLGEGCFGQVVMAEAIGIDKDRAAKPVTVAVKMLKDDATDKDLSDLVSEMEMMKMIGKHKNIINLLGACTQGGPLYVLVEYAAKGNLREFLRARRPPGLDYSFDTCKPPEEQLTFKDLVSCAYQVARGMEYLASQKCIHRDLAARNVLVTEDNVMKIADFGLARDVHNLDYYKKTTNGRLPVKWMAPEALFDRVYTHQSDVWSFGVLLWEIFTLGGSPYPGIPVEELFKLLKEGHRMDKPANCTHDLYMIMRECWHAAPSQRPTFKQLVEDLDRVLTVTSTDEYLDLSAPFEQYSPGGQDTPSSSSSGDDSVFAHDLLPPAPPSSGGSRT
Data set [11] concerns the target Hck (UniProt P08631). The description is as above.
Data set [12] deals with Jak2 (UniProt O60674). Described as above.
Data set [13] deals with EPHB1 (UniProt P54762). The data set is described as above.
EPHB1, sequence (P54762 whole entry, looked up): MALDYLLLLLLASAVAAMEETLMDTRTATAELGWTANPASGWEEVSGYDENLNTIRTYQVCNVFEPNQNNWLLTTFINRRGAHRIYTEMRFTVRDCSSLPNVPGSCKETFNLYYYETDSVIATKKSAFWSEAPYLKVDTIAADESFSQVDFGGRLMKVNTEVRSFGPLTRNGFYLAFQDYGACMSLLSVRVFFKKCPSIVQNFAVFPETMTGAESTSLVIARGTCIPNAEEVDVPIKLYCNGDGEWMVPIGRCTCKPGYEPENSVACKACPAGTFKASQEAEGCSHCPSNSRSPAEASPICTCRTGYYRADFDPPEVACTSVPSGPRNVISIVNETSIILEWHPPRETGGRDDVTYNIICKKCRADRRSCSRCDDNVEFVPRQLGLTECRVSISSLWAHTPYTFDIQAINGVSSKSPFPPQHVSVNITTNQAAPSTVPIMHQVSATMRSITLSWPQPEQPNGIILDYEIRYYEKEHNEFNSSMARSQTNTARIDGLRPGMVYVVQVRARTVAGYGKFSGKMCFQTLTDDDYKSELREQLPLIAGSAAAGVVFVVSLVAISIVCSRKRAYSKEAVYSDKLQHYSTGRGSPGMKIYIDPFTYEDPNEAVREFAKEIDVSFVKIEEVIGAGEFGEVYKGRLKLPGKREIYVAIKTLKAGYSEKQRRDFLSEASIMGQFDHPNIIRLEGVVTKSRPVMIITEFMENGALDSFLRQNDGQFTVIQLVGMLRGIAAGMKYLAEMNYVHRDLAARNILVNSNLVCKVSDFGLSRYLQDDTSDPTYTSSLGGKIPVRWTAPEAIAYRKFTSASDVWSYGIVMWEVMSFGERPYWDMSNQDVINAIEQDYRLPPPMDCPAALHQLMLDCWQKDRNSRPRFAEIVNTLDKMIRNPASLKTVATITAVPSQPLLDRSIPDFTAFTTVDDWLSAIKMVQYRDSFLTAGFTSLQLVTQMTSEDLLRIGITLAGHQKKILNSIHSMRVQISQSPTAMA
Data set [14] has as its target Grb2 SH2 (UniProt P62993). Description: SH2 binding enrichment of the phosphorylated peptide, bacterial display (enrichment ratio); higher = better substrate or ligand; peptides without Tyr show the background.
The target in data set [15] is c-Src SH2. The data set is described as above.
In data set [16] the target is SHP2-C SH2. The data set is described as above.
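Wherever SH2 binding enrichment of the phosphorylated peptide, bacterial display is given: peptide library displayed on the E. coli surface as eCPX fusions, selected cells deep-sequenced, score is each peptide's frequency after selection divided by its frequency in the input.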
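Wherever phosphorylation enrichment, bacterial display is given: 11-residue human phosphosite peptides and single-mutation variants displayed on the E. coli surface, counted by deep sequencing, each peptide's frequency after selection divided by its frequency in the unselected input library; frequency after pTyr selection over input frequency; kinase dosed for 20-30% of maximal phosphorylation in three min.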

EPHB2, sequence (P29323 whole entry, looked up): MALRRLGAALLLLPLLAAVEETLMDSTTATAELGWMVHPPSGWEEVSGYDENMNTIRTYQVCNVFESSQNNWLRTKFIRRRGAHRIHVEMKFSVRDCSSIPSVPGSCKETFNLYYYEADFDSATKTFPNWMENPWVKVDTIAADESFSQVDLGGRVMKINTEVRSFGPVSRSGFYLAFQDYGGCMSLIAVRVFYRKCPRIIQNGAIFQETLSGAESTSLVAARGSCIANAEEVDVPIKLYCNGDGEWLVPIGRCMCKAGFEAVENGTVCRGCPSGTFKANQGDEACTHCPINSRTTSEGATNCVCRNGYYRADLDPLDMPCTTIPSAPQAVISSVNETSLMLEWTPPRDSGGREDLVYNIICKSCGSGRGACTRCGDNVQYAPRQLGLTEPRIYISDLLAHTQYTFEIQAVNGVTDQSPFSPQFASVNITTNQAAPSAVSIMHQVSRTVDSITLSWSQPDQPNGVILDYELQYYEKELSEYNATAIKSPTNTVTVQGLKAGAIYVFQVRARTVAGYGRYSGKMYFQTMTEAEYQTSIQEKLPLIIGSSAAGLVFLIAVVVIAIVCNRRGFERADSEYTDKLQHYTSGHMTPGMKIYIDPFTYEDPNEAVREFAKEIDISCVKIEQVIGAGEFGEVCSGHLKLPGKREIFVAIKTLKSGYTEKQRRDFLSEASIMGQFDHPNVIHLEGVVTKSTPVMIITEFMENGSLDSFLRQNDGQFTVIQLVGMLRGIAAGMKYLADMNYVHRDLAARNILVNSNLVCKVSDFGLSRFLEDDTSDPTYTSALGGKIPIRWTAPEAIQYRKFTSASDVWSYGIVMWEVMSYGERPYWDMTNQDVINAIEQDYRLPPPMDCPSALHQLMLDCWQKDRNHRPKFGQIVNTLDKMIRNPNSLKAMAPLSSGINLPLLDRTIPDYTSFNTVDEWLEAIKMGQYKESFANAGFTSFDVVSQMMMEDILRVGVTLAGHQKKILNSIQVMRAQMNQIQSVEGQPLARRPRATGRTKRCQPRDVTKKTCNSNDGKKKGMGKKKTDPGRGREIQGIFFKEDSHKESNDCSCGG
Hck, sequence (P08631 whole entry, looked up): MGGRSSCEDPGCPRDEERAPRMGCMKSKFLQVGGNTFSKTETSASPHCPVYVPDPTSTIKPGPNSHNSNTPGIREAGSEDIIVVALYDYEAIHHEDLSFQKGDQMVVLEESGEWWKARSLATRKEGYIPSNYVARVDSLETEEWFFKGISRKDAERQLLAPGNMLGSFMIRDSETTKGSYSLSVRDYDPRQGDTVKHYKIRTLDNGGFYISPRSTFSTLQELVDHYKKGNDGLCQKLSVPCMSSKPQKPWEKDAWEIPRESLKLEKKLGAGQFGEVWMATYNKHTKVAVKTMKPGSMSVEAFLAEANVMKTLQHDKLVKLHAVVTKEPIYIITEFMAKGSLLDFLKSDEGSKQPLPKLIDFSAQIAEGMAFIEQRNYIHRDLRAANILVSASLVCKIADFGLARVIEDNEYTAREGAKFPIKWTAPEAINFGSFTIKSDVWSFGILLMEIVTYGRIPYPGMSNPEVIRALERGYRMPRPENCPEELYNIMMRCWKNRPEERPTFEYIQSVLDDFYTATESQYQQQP
Grb2 SH2, sequence (P62993 whole entry, looked up): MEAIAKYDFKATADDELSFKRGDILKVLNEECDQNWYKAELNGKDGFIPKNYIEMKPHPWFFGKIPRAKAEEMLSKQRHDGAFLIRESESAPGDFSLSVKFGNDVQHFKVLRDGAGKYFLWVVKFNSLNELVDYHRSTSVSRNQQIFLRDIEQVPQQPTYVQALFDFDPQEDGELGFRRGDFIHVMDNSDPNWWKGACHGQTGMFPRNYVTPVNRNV

As to SGETKYNPTEA [NBEAL2_Y2748_E2747K], the phosphorylation enrichment in data set [1] is 0.868; in data set [2], 0.476; in data set [3], 0.767; in data set [4], 0.539; in data set [5], 0.449; in data set [6], 0.537. Moreover, the phosphorylation enrichment in data set [7] is 0.502; in data set [8], 0.459; in data set [9] it was 0.624; in [10], 0.594; in data set [11], 0.613; in [12], 0.848. Moreover, the phosphorylation enrichment in data set [13] came out at 0.558. The SH2 binding enrichment in [14] came to 0.791; in data set [15] it was 0.579; in data set [16] it was 0.533.

Take SGGSSYGSGGG [KRT1_Y532]: the phosphorylation enrichment in [1] is 0.583; in data set [2] it was 0.396; in [3] it was 0.506; in data set [4] it was 0.397; in data set [5] it was 0.362; in [6] it was 0.449. Moreover, the phosphorylation enrichment worked out at 0.411 in [7]; 0.382 in data set [8]; 0.633 in data set [9]; 0.389 in [10]; 0.396 in data set [11]; 0.537 in data set [12]. In addition, the phosphorylation enrichment in data set [13] was determined as 0.381. Further, the SH2 binding enrichment in data set [14] came to 0.871; in [15], 0.427; in data set [16] it was 0.527.

Take SGPRRYNIAAL [TTR_Y125_T126N]: the phosphorylation enrichment in data set [1] is 0.52; in data set [2], 0.343; in data set [3] it was 0.572; in data set [4], 0.432; in [5], 0.411; in [6], 0.409. Further, the phosphorylation enrichment in data set [7] was found to be 0.505; in [8] it was 0.377; in [9] it was 0.452; in data set [10] it was 0.394; in data set [11] it was 0.43; in [12] it was 0.511. Also, the phosphorylation enrichment in data set [13] is 0.285. In addition, the SH2 binding enrichment in data set [14] came to 0.556; in data set [15] it was 0.419; in data set [16], 0.551.

For SGPRRYTVAAL [TTR_Y125_I127V], the phosphorylation enrichment in data set [1] turned out to be 0.496; in [2], 0.42; in [3], 0.51; in [4], 0.393; in data set [5], 0.395; in data set [6], 0.415. Moreover, the phosphorylation enrichment in data set [7] was 0.401; in data set [8], 0.457; in [9], 0.635; in data set [10] it was 0.423; in data set [11], 0.429; in data set [12], 0.729. Moreover, the phosphorylation enrichment in data set [13] came to 0.409. The figures for the SH2 binding enrichment in data set [14], in data set [15] and in [16] were 0.794, 0.618 and 0.516, respectively.

For SHGKQYRVPSD [HHIPL2_Y395_R394Q], the phosphorylation enrichment in [1] is 0.544; in data set [2], 0.371; in data set [3] it was 0.54; in data set [4] it was 0.354; in [5], 0.347; in [6] it was 0.353. Moreover, the phosphorylation enrichment in data set [7] was 0.344; in [8], 0.34; in [9], 0.512; in data set [10], 0.427; in [11], 0.4; in data set [12], 0.46. Further, the phosphorylation enrichment in [13] came to 0.35. For the same sequence, the SH2 binding enrichment came to 0.686 in data set [14], 0.403 in [15] and 0.475 in [16].

As for SHGQDYLVGNK [GSTA1_Y147], the phosphorylation enrichment was found to be 0.74 in [1]; 0.456 in data set [2]; 0.585 in data set [3]; 0.449 in data set [4]; 0.363 in [5]; 0.417 in data set [6]. Further, the phosphorylation enrichment was determined as 0.385 in data set [7]; 0.451 in data set [8]; 0.62 in data set [9]; 0.419 in [10]; 0.412 in data set [11]; 0.606 in [12]. For the same sequence, the phosphorylation enrichment in data set [13] was found to be 0.402. For the same sequence, the SH2 binding enrichment in data set [14] was 0.58; in [15], 0.432; in data set [16], 0.564.

Consider SHMVNYQPFRK [TEX37_Y25_D24N_YF], for which the phosphorylation enrichment in data set [1] came out at 0.534; in data set [2], 0.371; in data set [3], 0.528; in data set [4], 0.355; in data set [5], 0.358; in data set [6], 0.492. Moreover, the phosphorylation enrichment was 0.347 in data set [7]; 0.37 in [8]; 0.504 in [9]; 0.364 in data set [10]; 0.405 in data set [11]; 0.573 in [12]. For the same sequence, the phosphorylation enrichment in data set [13] turned out to be 0.376. Further, the figures for the SH2 binding enrichment in [14], in [15] and in [16] were 0.766, 0.613 and 0.732, respectively.

SIKDKYVTALC [KCNH2_Y611_Y616C]: the phosphorylation enrichment in data set [1] was 0.695; in [2], 0.371; in data set [3] it was 0.64; in data set [4] it was 0.467; in data set [5], 0.346; in [6], 0.386. The phosphorylation enrichment stood at 0.376 in [7]; 0.393 in [8]; 0.51 in data set [9]; 0.81 in [10]; 0.362 in data set [11]; 0.653 in [12]. In addition, the phosphorylation enrichment in data set [13] turned out to be 0.387. The SH2 binding enrichment is 0.918 in [14], 0.555 in data set [15] and 0.801 in [16].
